The values that follow are results of earlier work, collected in US20110020225A1, “POROUS POLYMER PARTICLES IMMOBILIZED WITH CHARGED MOLECULES AND METHOD FOR PREPARING THE SAME” (KOREA RESEARCH INSTITUTE OF BIOSCIENCE AND BIOTECHNOLOGY, priority 2007, published 2011).

For the series the following is noted: negative charge at pH 7.4.

B1: ovalbumin-fluorescent dye: ovalbumin-fluorescent dye (45 kDa, pI=4.6) having a negative charge at pH 7.4 (conjugate, UniProt P01012 2-386, looked up)
Ovalbumin: GSIGAASMEFCFDVFKELKVHHANENIFYCPIAIMSALAMVYLGAKDSTRTQINKVVRFDKLPGFGDSIEAQCGTSVNVHSSLRDILNQITKPNDVYSFSLASRLYAEERYPILPEYLQCVKELYRGGLEPINFQTAADQARELINSWVESQTNGIIRNVLQPSSVDSQTAMVLVNAIVFKGLWEKAFKDEDTQAMPFRVTEQESKPVQMMYQIGLFRVASMASEKMKILELPFASGTMSMLVLLPDEVSGLEQLESIINFEKLTEWTSSNVMEERKIKVYLPRMKMEEKYNLTSVLMAMGITDVFSSSANLSGISSAESLKISQAVHAAHAEINEAGREVVGSAEAGVDAASVSEEFRADHPFLFCIKHIATNAVLFFGRCVSP
modifications: fluorescent dye
Consider B1, for which the pI is on record as 4.6.
